Among the data in patent publication US20230212554A1 (published 2023) are EC50 values, retold here.

Sequences and labels used below:
B1: NP13 (antibody, V domains shown)
VH: EVQLVESGGGLVQPGGSLRLSCAASGFTINNYGIHWVRQAPGKGLEWVASIGPYGGSTYYADSVKGRFTISADTSKNTAYLQMNSLRAEDTAVYYCARFGYFNWLDMDYWGQGTLVTVSS
VL: DIQMTQSPSSLSASVGDRVTITCRASQDVGYWVAWYQQKPGKAPKLLISSASGLYSGVPSRFSGSGSGTDFTLTISSLQPEDFATYYCQQGWDWPITFGQGTKVEIKR
B2: NP4 (antibody, V domains shown)
VH: EVQLVESGGGLVQPGGSLRLSCAASGFTISNSSIHWVRQAPGKGLEWVAGIGPSGGYTFYADSVKGRFTISADTSKNTAYLQMNSLRAEDTAVYYCARFHSHNSYYSYSHYGYMDYWGQGTLVTVSS
VL: DIQMTQSPSSLSASVGDRVTITCRASQDVGWGVAWYQQKPGKAPKLLISGPSSLYSGVPSRFSGSGSGTDFTLTISSLQPEDFATYYCQQYFNYPITFGQGTKVEIKR
B3: NP8 (antibody, V domains shown)
VH: EVQLVESGGGLVQPGGSLRLSCAASGFTINSFGIHWVRQAPGKGLEWVAGIGPFGGSTFYADSVKGRFTISADTSKNTAYLQMNSLRAEDTAVYYCARGFYWFDYWGQGTLVTVSS
VL: DIQMTQSPSSLSASVGDRVTITCRASQDVDDSVAWYQQKPGKAPKLLIYWTRYLYSGVPSRFSGSGSGTDFTLTISSLQPEDFATYYCQQGYNYPLTFGQGTKVEIKR
B4: NP14 (antibody, V domains shown)
VH: EVQLVESGGGLVQPGGSLRLSCAASGFTIDNGGIHWVRQAPGKGLEWVASIWPSWGSTSYADSVKGRFTISADTSKNTAYLQMNSLRAEDTAVYYCARFNFGVFGVMDYWGQGTLVTVSS
VL: DIQMTQSPSSLSASVGDRVTITCRASQDVDNDVAWYQQKPGKAPKLLIYGPRGLYSGVPSRFSGSGSGTDFTLTISSLQPEDFATYYCQQYSSWPLTFGQGTKVEIKR
B5: NP9 (antibody, V domains shown)
VH: EVQLVESGGGLVQPGGSLRLSCAASGFTINNGWIHWVRQAPGKGLEWVAGIGPYWGFTSYADSVKGRFMISADTSKNTAYLQMNSLRAEDTAVYYCARFDSDHDHHYSYYYYYDNGYMDYWGQGTLVTVSS
VL: DIQMTQSPSSLSASVGDRVTITCRASQDVWFSVAWYQQKPGKAPKLLIYGTTSLYSGVPSRFSGSGSGTDFTLTISSLQPEDFATYYCQQYFNYPLTFGQGTKVEIKR

This test has as its target NPA3 (influenza A virus A/Aalborg/INS132/2009 …, UniProt P68042 1-489). Description: ELISA on recombinant NP. In general terms: ELISA stands for enzyme-linked immunosorbent assay.
Consider B1, for which the EC50 (commonly the concentration giving half of the maximal effect) was determined as 9.36 nM. The result for B2 reads 10.1 nM; that for B3, 0.07 nM. For B4 the value was 19.7 nM; for B5, 4.38 nM.
